Experimental findings from publication doi:10.1101/2023.04.28.538712 (bioRxiv, 2023) are described below.

Experiment [1] deals with T1, β2-microglobulin, biotinylated (Homo sapiens, UniProt P61769).
T1 construct: β2-microglobulin, human; Surmise: such E. coli constructs are usually the mature protein with an added first methionine; also called human β2-microglobulin; recombinant β2-microglobulin
Nature of the experiment: BLI; Octet-BLI K2; SA sensors loaded with 50 nM biotinylated β2-microglobulin; Nb24 variants in solution (25-400 nM in Fig. 5C); PBS + 0.05% Tween-20, 30°C, 1000 rpm; global fit, 1:1 partial dissociation binding model; KD mean of 3 independent experiments. To be noted: both partners purified.

The target of experiment [2] is T2, SARS-CoV-2 Spike receptor-binding domain (RBD), biotinylated (SARS-CoV-2, strain ; …, UniProt P0DTC2).
T2 construct: also called SARS-CoV-2 RBD; SarS-CoV-2 RBD
Put plainly: BLI. To be noted: both partners purified.

T1 sequence (P61769 21-119): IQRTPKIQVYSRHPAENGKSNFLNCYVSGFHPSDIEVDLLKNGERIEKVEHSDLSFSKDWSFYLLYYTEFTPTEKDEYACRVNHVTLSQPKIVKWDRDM

B1: Nb24 humanised variant, AbNatiV Exhaustive sampling (+buried) (VHH)
VHH: EVQLVESGGGLVQPGGSLRLSCAASGYTDSRYCMAWFRQAPGKGLEWVARINSGRDITYYADSVKGRFTISRDNAKNTVYLQMDSLKPEDTAVYYCATDIPLRCRDIVAKGGDGFRYWGQGTLVTVSS
notes: Parent: Nb24 WT; also called Exhausted +buried; source: E. coli Shuffle LysY, secreted to the medium, purified (His Mag Sepharose Excel beads, SEC Superdex 75)
For the molecule B1, the binding result in experiment [1] is “binds”.

B2: Nb24 humanised variant, Frequency and Structure-based humanisation (Llamanade) (VHH)
VHH: QVQLVESGGGLVQPGGSLRLSCAASGYTDSRYCMAWFRQAPGKGLEWVARINSGRDITYYADSVKGRFTISRDNAKNTLYLQMNSLRAEDTAVYYCARDIPLRCRDIVAKGGDGFRYWGQGTLVTVSS
notes: Parent: Nb24 WT; also called Frequency & structure-based; Frequency and Structure-based humanised variant; source: E. coli Shuffle LysY, secreted to the medium, purified (His Mag Sepharose Excel beads, SEC Superdex 75)
Turning to B2, the binding result in experiment [1] is on record as “binds”.

B3: Nb24 WT nanobody (VHH)
VHH: QVQLQESGGGSVQAGGSLRLSCAASGYTDSRYCMAWFRQAPGKEREWVARINSGRDITYYADSVKGRFTFSQDNAKNTVYLQMDSLEPEDTATYYCATDIPLRCRDIVAKGGDGFRYWGQGTQVTVSS
notes: source: E. coli Shuffle LysY, secreted to the medium, purified (His Mag Sepharose Excel beads, SEC Superdex 75)
As for B3, the dissociation constant (Kd) in experiment [1] worked out at 79 nM.

B4: Nb24 humanised variant, AbNatiV Exhaustive sampling (VHH)
VHH: EVQLVESGGGLVQPGGSLRLSCAASGYTDSRYCMAWFRQAPGKGLEWVARINSGRDITYYADSVKGRFTFSRDNAKNTVYLQMDSLRPEDTAVYYCATDIPLRCRDIVAKGGDGFRYWGQGTQVTVSS
notes: Parent: Nb24 WT; also called Nb24 Exhaustive; source: E. coli Shuffle LysY, secreted to the medium, purified (His Mag Sepharose Excel beads, SEC Superdex 75)
For the molecule B4, the Kd in experiment [1] stood at 75 nM.

B5: Nb24 humanised variant, AbNatiV Enhanced sampling (VHH)
VHH: EVQLLESGGGLVQPGGSLRLSCAASGYTDSRYCMAWFRQAPGKEREWVARINSGRDITYYADSVKGRFTFSRDNSKNTVYLQMDSLRPEDTAVYYCATDIPLRCRDIVAKGGDGFRYWGQGTQVTVSS
notes: Parent: Nb24 WT; also called Nb24 Enhanced; source: E. coli Shuffle LysY, secreted to the medium, purified (His Mag Sepharose Excel beads, SEC Superdex 75)
B5: the dissociation constant (Kd) in experiment [1] was 68 nM.

B6: Nb24 humanised variant, AbNatiV Enhanced sampling (+buried) (VHH)
VHH: EVQLLESGGGLVQPGGSLRLSCAASGYTDSRYCMAWFRQAPGKEREWVARINSGRDITYYADSVKGRFTVSRDNSKNTVYLQMDSLRPEDTAVYYCATDIPLRCRDIVAKGGDGFRYWGQGTQVTVSS
notes: Parent: Nb24 WT; source: E. coli Shuffle LysY, secreted to the medium, purified (His Mag Sepharose Excel beads, SEC Superdex 75)
As for B6, in experiment [1], the binding result is given as “binds”.

B7: mNb6 humanised variant, AbNatiV Enhanced sampling (+buried) (VHH)
VHH: EVQLVESGGGLVQPGGSLRLSCAASGYIFGRNAMGWVRQAPGKGREWVSGITRRGSITYYADSVKGRFTISRDNAKNTVYLQMNSLRPEDTAVYYCAADPASPAYGDYWGQGTQVTVSS
notes: Parent: mNb6 WT
Consider B7, for which the binding result in experiment [2] is recorded as “binds”.

B8: mNb6 humanised variant, AbNatiV Enhanced sampling (VHH)
VHH: EVQLVESGGGLVQPGGSLRLSCAASGYIFGRNAMGWYRQAPGKERELVAGITRRGSITYYADSVKGRFTISRDNAKNTVFLQMNSLRPEDTAVYYCAADPASPAYGDYWGQGTQVTVSS
notes: Parent: mNb6 WT; also called mNb6 Enhanced
In the case of B8, the Kd in experiment [2] is 0.86 nM.

B9: mNb6 humanised variant, Frequency and Structure-based humanisation (Llamanade) (VHH)
VHH: QVQLVESGGGLVQPGGSLRLSCAASGYIFGRNAMGWVRQAPGKGLEWVAGITRRGSITYYADSVKGRFTISRDNAKNTLYLQMNSLRAEDTAVYYCARDPASPAYGDYWGQGTLVTVSS
notes: Parent: mNb6 WT; also called Frequency & structure-based; Frequency and Structure-based variant
As to B9, in experiment [2], the binding result is recorded as “no binding (tested: 500 nM)”.

B10: mNb6 humanised variant, AbNatiV Exhaustive sampling (+buried) (VHH)
VHH: EVQLVESGGGLVQPGGSLRLSCAASGYIFGRNAMGWVRQAPGKGLEWVAGITRRGSITYYADSVKGRFTISRDNAKNTVYLQMDSLRPEDTAVYYCAADPASPAYGDYWGQGTLVTVSS
notes: Parent: mNb6 WT; also called mNb6 Exhausted Sampling + buried; Exhausted +buried
Consider B10, for which the binding result in experiment [2] is “binds”.

B11: mNb6 humanised variant, AbNatiV Exhaustive sampling (VHH)
VHH: EVQLVESGGGLVQPGGSLRLSCAASGYIFGRNAMGWYRQAPGKGLEWVAGITRRGSITYYADSVKGRFTISRDNAKNTVFLQMDSLRPEDTAVYYCAADPASPAYGDYWGQGTLVTVSS
notes: Parent: mNb6 WT; also called mNb6 Exhaustive
B11: the dissociation constant Kd in experiment [2] was 15 nM.
